Settings in all cases: protein: recombinant; label: fluorescein-dT at T8; single-chain dumbbell, 18 bp with central nick, two tetraloops
For data set [1], the target named is T1, PARP-1 F1+F2 (24-kDa DBD) (Homo sapiens, UniProt P09874 1-214). Nature of the data set: fluorescence anisotropy; 150; 50 mM Tris-HCl pH 7.0, 150 uM ZnSO4, 4 mM DTT, 25 C; NaCl 0-200 mM (T2, as in cof; 10 nM DNA) or 25 mM (T3 mutants; 25 nM DNA).
Data set [2] deals with T2, DNA ligase III alpha zinc finger (DL3) (UniProt P49916-3 1-117).
T2 sequence: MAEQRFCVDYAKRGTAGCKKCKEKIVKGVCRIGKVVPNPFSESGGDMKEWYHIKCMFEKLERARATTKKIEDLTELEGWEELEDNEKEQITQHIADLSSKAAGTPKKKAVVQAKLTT
Nature of the data set: fluorescence anisotropy; 20 mM pyrophosphate pH 7.0; more similar to F2 than F1; FA: 50 mM Tris-HCl pH 7, 150 uM ZnSO4, 4 mM DTT, 0-200 mM NaCl, 25 C, 10 nM DNA (mutants 25 nM DNA, 25 mM NaCl); EMSA: 50 mM Tris-HCl pH 7.4, 150 uM ZnSO4, 4 mM DTT, 10% glycerol, RT incubation, gel at 4 C; NMR complexes: 50 mM Tris pH 7.0, 150 uM ZnSO4, 4 mM DTT, 37 C. A general note: In fluorescence polarisation assays a small probe gives low polarisation when free and higher when bound to something large.

Data set [3] concerns the target T3, PARP-1 F2 (Homo sapiens, UniProt P09874 103-214). Nature of the data set: fluorescence anisotropy; 100; 50 mM Tris-HCl pH 7.0, 150 uM ZnSO4, 4 mM DTT, 25 C; NaCl 0-200 mM (T2, as in cof; 10 nM DNA) or 25 mM (T3 mutants; 25 nM DNA).
Data set [4] addresses T1, PARP-1 F1+F2 (24-kDa DBD). Described as above.
Data set [5] deals with T1, PARP-1 F1+F2 (24-kDa DBD). Nature of the data set: fluorescence anisotropy; 200; 50 mM Tris-HCl pH 7.0, 150 uM ZnSO4, 4 mM DTT, 25 C; NaCl 0-200 mM (T2, as in cof; 10 nM DNA) or 25 mM (T3 mutants; 25 nM DNA).
For the next data set, the target named is PARP-1 F2 K141I/K142I (Homo sapiens, UniProt P09874 103-214, K141I;K142I). Nature of the data set: fluorescence anisotropy; 25 mM NaCl; apparent, one-site model; FA: 50 mM Tris-HCl pH 7, 150 uM ZnSO4, 4 mM DTT, 0-200 mM NaCl, 25 C, 10 nM DNA (mutants 25 nM DNA, 25 mM NaCl); EMSA: 50 mM Tris-HCl pH 7.4, 150 uM ZnSO4, 4 mM DTT, 10% glycerol, RT incubation, gel at 4 C; NMR complexes: 50 mM Tris pH 7.0, 150 uM ZnSO4, 4 mM DTT, 37 C.
PARP-1 F2 K141I/K142I, sequence (P09874 103-214 K141I/K142I): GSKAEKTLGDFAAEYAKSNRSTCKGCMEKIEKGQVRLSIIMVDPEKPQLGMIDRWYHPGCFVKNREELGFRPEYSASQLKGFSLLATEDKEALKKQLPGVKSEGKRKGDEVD

Data set [6] deals with T1, PARP-1 F1+F2 (24-kDa DBD). Nature of the data set: fluorescence anisotropy; 0 mM NaCl; tight site (KD1); FA: 50 mM Tris-HCl pH 7, 150 uM ZnSO4, 4 mM DTT, 0-200 mM NaCl, 25 C, 10 nM DNA (mutants 25 nM DNA, 25 mM NaCl); EMSA: 50 mM Tris-HCl pH 7.4, 150 uM ZnSO4, 4 mM DTT, 10% glycerol, RT incubation, gel at 4 C; NMR complexes: 50 mM Tris pH 7.0, 150 uM ZnSO4, 4 mM DTT, 37 C.

For data set [7], the target named is T1, PARP-1 F1+F2 (24-kDa DBD). Nature of the data set: fluorescence anisotropy; 25; 50 mM Tris-HCl pH 7.0, 150 uM ZnSO4, 4 mM DTT, 25 C; NaCl 0-200 mM (T2, as in cof; 10 nM DNA) or 25 mM (T3 mutants; 25 nM DNA).
In data set [8] the target is T3, PARP-1 F2. Nature of the data set: fluorescence anisotropy; 75; 50 mM Tris-HCl pH 7.0, 150 uM ZnSO4, 4 mM DTT, 25 C; NaCl 0-200 mM (T2, as in cof; 10 nM DNA) or 25 mM (T3 mutants; 25 nM DNA).
The target of data set [9] is T1, PARP-1 F1+F2 (24-kDa DBD). The description is as above.
The target of data set [10] is T3, PARP-1 F2. Nature of the data set: fluorescence anisotropy; 50; 50 mM Tris-HCl pH 7.0, 150 uM ZnSO4, 4 mM DTT, 25 C; NaCl 0-200 mM (T2, as in cof; 10 nM DNA) or 25 mM (T3 mutants; 25 nM DNA).
Data set [11] deals with T1, PARP-1 F1+F2 (24-kDa DBD). The description is as above.

The values below come from paper PMC3094755, “The DNA-Binding Domain of Human PARP-1 Interacts with DNA Single-Strand Breaks as a Monomer through Its Second Zinc Finger”.

T1 sequence (P09874 1-214): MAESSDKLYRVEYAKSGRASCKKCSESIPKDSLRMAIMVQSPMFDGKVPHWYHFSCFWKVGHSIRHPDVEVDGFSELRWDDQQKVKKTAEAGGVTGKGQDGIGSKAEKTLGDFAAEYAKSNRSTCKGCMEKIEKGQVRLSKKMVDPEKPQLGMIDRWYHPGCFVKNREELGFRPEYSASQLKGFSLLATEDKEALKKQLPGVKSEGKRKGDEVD
T3 sequence (P09874 103-214): as the sequence (P09874 103-214 K141I/K142I) above, with I39K, I40K counted along it

Turning to CGGTCGATCGTAAGATCGACCGGCGCTGGAGCTTGCTCCAGCGC (structured_DNA, 5'-phosphate) [44-nt nicked dumbbell, 5'-phosphate, fluorescein-dT], the Kd in data set [1] turned out to be 24.6 nM; with PARP-1 F2 [3], 146 nM; in data set [4], 9.37 nM; in [5], 45.4 nM; in the data set with PARP-1 F2 K141I/K142I it was 3930 nM; in data set [6], 5.7 nM. Further, the Kd in data set [7] amounted to 20.4 nM; with PARP-1 F2 [8], 218 nM; in [9], 37 nM; with PARP-1 F2 [10], 130 nM; in [11] it was 8.02 nM. Besides, in [2], the binding result is listed as “binds”.
